Laboratory results from the supplement of paper PMC9112550, “Optimization of the antimicrobial peptide Bac7 by deep mutational scanning” (BMC Biology, 2022).

Tested on: Escherichia coli TOP10
Experiment: shrunken log2 fold change of peptide-encoding DNA abundance (4.5 h post-induction vs induction); higher = less antimicrobial activity (less host growth inhibition)
Settings: time post-induction: 4.5 h; library: site-saturation at positions 5, 18, 19, 20
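Also: peptides expressed intracellularly from a pBAD plasmid library in pooled LB shake-flask culture, induced with 0.3% L-arabinose, DNA abundance read by NGS, three biological replicates, DESeq2 with apeglm shrinkage.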

Point of comparison: RRIRARPPRLPRPRPRPDVAPRP, “shrunken log2 fold change” value 1.35. Against it:
- RRIRARPPRLPRPRPRPAALPRP — lower, 0.805
- RRIRARPPRLPRPRPRPACAPRP — lower, 0.922
- RRIRARPPRLPRPRPRPADKPRP — lower, 0.197
- RRIRARPPRLPRPRPRPAECPRP — lower, 0.041
- RRIRARPPRLPRPRPRPAFGPRP — lower, 0.6
- RRIRARPPRLPRPRPRPAFIPRP — lower, 0.142
- RRIRARPPRLPRPRPRPAFSPRP — lower, 0.215
- RRIRARPPRLPRPRPRPAFTPRP — lower, 0.315
- RRIRARPPRLPRPRPRPAHRPRP — lower, 0.326
- RRIRARPPRLPRPRPRPAIFPRP — lower, 0.562
- RRIRARPPRLPRPRPRPAILPRP — lower, -0.087
- RRIRARPPRLPRPRPRPAIVPRP — lower, -0.123
- RRIRARPPRLPRPRPRPAKFPRP — lower, 0.168
- RRIRARPPRLPRPRPRPAKGPRP — lower, 0.342
- RRIRARPPRLPRPRPRPAKQPRP — lower, -0.197
- RRIRARPPRLPRPRPRPALGPRP — lower, 0.73
- RRIRARPPRLPRPRPRPAMAPRP — lower, 0.479
- RRIRARPPRLPRPRPRPANMPRP — lower, -0.0999
- RRIRARPPRLPRPRPRPAPYPRP — lower, -0.0625
- RRIRARPPRLPRPRPRPAQHPRP — lower, 0.326
- RRIRARPPRLPRPRPRPAQIPRP — lower, -0.0241
- RRIRARPPRLPRPRPRPATYPRP — lower, 0.0208
- RRIRARPPRLPRPRPRPAVDPRP — lower, 0.289
- RRIRARPPRLPRPRPRPAVHPRP — lower, 0.175
- RRIRARPPRLPRPRPRPAVMPRP — lower, 0.399
- RRIRARPPRLPRPRPRPAWFPRP — lower, 0.303
- RRIRARPPRLPRPRPRPAWMPRP — lower, -0.00906
- RRIRARPPRLPRPRPRPCAGPRP — lower, 0.477
- RRIRARPPRLPRPRPRPCCFPRP — lower, 0.274
- RRIRARPPRLPRPRPRPCCLPRP — lower, 0.0817
- RRIRARPPRLPRPRPRPCCRPRP — lower, 0.406
- RRIRARPPRLPRPRPRPCDDPRP — lower, -0.0166
- RRIRARPPRLPRPRPRPCEMPRP — lower, 0.345
- RRIRARPPRLPRPRPRPCFIPRP — lower, -0.333
- RRIRARPPRLPRPRPRPCGWPRP — lower, 0.365
- RRIRARPPRLPRPRPRPCIPPRP — higher, 2.51
- RRIRARPPRLPRPRPRPCLSPRP — lower, 0.233
- RRIRARPPRLPRPRPRPCLWPRP — lower, -0.199
- RRIRARPPRLPRPRPRPCMRPRP — lower, 0.238
- RRIRARPPRLPRPRPRPCNAPRP — lower, 0.0237
- RRIRARPPRLPRPRPRPCNGPRP — lower, -0.139
- RRIRARPPRLPRPRPRPCPDPRP — lower, -0.161
- RRIRARPPRLPRPRPRPCQNPRP — lower, 0.105
- RRIRARPPRLPRPRPRPCRMPRP — lower, -0.353
- RRIRARPPRLPRPRPRPCRQPRP — lower, -0.0784
- RRIRARPPRLPRPRPRPCSSPRP — lower, 0.0291
- RRIRARPPRLPRPRPRPCTSPRP — lower, 0.0117
- RRIRARPPRLPRPRPRPCVAPRP — lower, 0.715
- RRIRARPPRLPRPRPRPCVSPRP — lower, -0.0271
- RRIRARPPRLPRPRPRPCYHPRP — lower, -0.0657
- RRIRARPPRLPRPRPRPDEYPRP — lower, -0.0116
- RRIRARPPRLPRPRPRPDGAPRP — lower, 0.673
- RRIRARPPRLPRPRPRPDGEPRP — lower, 0.209
- RRIRARPPRLPRPRPRPDGGPRP — lower, 0.432
- RRIRARPPRLPRPRPRPDIFPRP — lower, 0.148
- RRIRARPPRLPRPRPRPDKSPRP — lower, -0.169
- RRIRARPPRLPRPRPRPDKVPRP — lower, 0.0597
- RRIRARPPRLPRPRPRPDMMPRP — lower, 0.139
- RRIRARPPRLPRPRPRPDNNPRP — lower, -0.154
- RRIRARPPRLPRPRPRPDNRPRP — lower, 0.0425
- RRIRARPPRLPRPRPRPDPCPRP — lower, 0.428
- RRIRARPPRLPRPRPRPDQMPRP — lower, 0.386
- RRIRARPPRLPRPRPRPDQPPRP — lower, 0.0452
- RRIRARPPRLPRPRPRPDRCPRP — lower, 0.285
- RRIRARPPRLPRPRPRPDRVPRP — lower, -0.0545
- RRIRARPPRLPRPRPRPDSPPRP — lower, 0.342
- RRIRARPPRLPRPRPRPDTVPRP — lower, -0.125
- RRIRARPPRLPRPRPRPDWNPRP — lower, 0.0789
- RRIRARPPRLPRPRPRPECAPRP — within 0.2 log units, 1.5
- RRIRARPPRLPRPRPRPECPPRP — lower, 0.683
- RRIRARPPRLPRPRPRPECSPRP — lower, 1
- RRIRARPPRLPRPRPRPEDCPRP — lower, 0.243
- RRIRARPPRLPRPRPRPEDTPRP — lower, 0.625
- RRIRARPPRLPRPRPRPEETPRP — lower, -0.03
- RRIRARPPRLPRPRPRPEFFPRP — lower, 0.33
- RRIRARPPRLPRPRPRPEGMPRP — within 0.2 log units, 1.2
- RRIRARPPRLPRPRPRPEHNPRP — lower, -0.0925
- RRIRARPPRLPRPRPRPEHPPRP — lower, 0.652
- RRIRARPPRLPRPRPRPEIFPRP — lower, 0.273
- RRIRARPPRLPRPRPRPEKDPRP — lower, 0.366
- RRIRARPPRLPRPRPRPEKFPRP — lower, -0.0388
- RRIRARPPRLPRPRPRPEKGPRP — lower, -0.0434
- RRIRARPPRLPRPRPRPEKMPRP — lower, 0.706
- RRIRARPPRLPRPRPRPELHPRP — lower, 0.964
- RRIRARPPRLPRPRPRPELPPRP — within 0.2 log units, 1.5
- RRIRARPPRLPRPRPRPEMMPRP — lower, 1.12
- RRIRARPPRLPRPRPRPEMRPRP — within 0.2 log units, 1.19
- RRIRARPPRLPRPRPRPENDPRP — lower, 0.085
- RRIRARPPRLPRPRPRPEPAPRP — within 0.2 log units, 1.43
- RRIRARPPRLPRPRPRPEPKPRP — within 0.2 log units, 1.36
- RRIRARPPRLPRPRPRPEPVPRP — lower, 0.512
- RRIRARPPRLPRPRPRPEQKPRP — within 0.2 log units, 1.29
- RRIRARPPRLPRPRPRPEREPRP — lower, 1.05
- RRIRARPPRLPRPRPRPERLPRP — lower, 0.23
- RRIRARPPRLPRPRPRPERPPRP — lower, 0.556
- RRIRARPPRLPRPRPRPESDPRP — within 0.2 log units, 1.17
- RRIRARPPRLPRPRPRPESGPRP — lower, 0.793
- RRIRARPPRLPRPRPRPETIPRP — lower, 0.541
- RRIRARPPRLPRPRPRPEVLPRP — lower, 0.709
- RRIRARPPRLPRPRPRPEVPPRP — lower, 0.162
- RRIRARPPRLPRPRPRPEWAPRP — lower, 1.06
- RRIRARPPRLPRPRPRPEWHPRP — lower, 0.381
- RRIRARPPRLPRPRPRPEYKPRP — lower, -0.0123
- RRIRARPPRLPRPRPRPFAHPRP — lower, 0.128
- RRIRARPPRLPRPRPRPFARPRP — lower, -0.0584
- RRIRARPPRLPRPRPRPFCIPRP — lower, -0.0716
- RRIRARPPRLPRPRPRPFCYPRP — lower, 0.0576
- RRIRARPPRLPRPRPRPFDTPRP — lower, -0.333
